Data taken from patent US20250011468A1 (Novo Nordisk, published 2025).

How the values were obtained:
[1] = molecular target: FIX R403A with C-terminal His-tag (human, UniProt P00740 47-461); experiment: SPR (Biacore T200), His-tagged FIX variant captured by anti-His antibody, one-armed antibody as analyte; % of wild-type binding
Description: (§1) SPR analyses were carried out on Biacore 4000 or Biacore T200 instruments (Biacore AB, Uppsala, Sweden). For the experiments on the T200 instrument the following conditions were applied: measurements were conducted at a temperature of 25° C. Anti-His antibody at 25 μg/ml (R&D Systems, catalogue #MAB050) was immobilized on a CM5 sensor chip using standard amine coupling chemistry. […] at 25 nM were injected at a flow rate of 10 μl/min for 1 min and were captured via their His-tag by the immobilized anti-His antibody. Subsequently, 200 nM (with 4-fold serial dilutions), 1600 nM (with 3-fold serial dilutions), and 2000 nM (with 3-fold serial dilution) of mAb4-0004, mAb3-3279 and mAb4-0673, respectively, were injected at a flow rate of 50 μl/min for 5 min to allow for binding to captured FIX variant followed by a 10 min buffer injection allowing for dissociation of the monovalent anti-FIX antibodies. The running buffer used was 20 mM Tris, 150 mM NaCl, 5 mM CaCl₂, 0.05% Tween-20, 1 mg/ml BSA, pH 7.4. This was also used for dilution of anti-FIX antibody and FIX samples. Regeneration of the chip was achieved using 10 mM Glycine pH 2.0. Binding data were analysed according to a 1:1 model using BiaEvaluation 4.1 supplied by the manufacturer (Biacore AB, Uppsala, Sweden). A similar experimental set-up was used for the Biacore 4000 instrument.
(§2) A more detailed binding analysis was conducted for residues defined as epitope residues (see example 6) using the Biacore T200 instrument.

[2] = molecular target: FIX N258A with C-terminal His-tag (human, UniProt P00740 47-461); experiment: as above
Description: as §1, §2

[3] = molecular target: FIX K411A with C-terminal His-tag (human, UniProt P00740 47-461); experiment: as above
Description: as §1, §2

[4] = molecular target: FIX N406A with C-terminal His-tag (human, UniProt P00740 47-461); experiment: as above
Description: as §1, §2

[5] = molecular target: FIX H256A with C-terminal His-tag (human, UniProt P00740 47-461); experiment: as above
Description: as §1, §2

[6] = molecular target: FIX E410Q with C-terminal His-tag (human, UniProt P00740 47-461); experiment: as above
Description: as §1, §2

[7] = molecular target: FIX H257A with C-terminal His-tag (human, UniProt P00740 47-461); experiment: as above
Description: as §1, §2

[8] = molecular target: FIX K293A with C-terminal His-tag (human, UniProt P00740 47-461); experiment: as above
Description: as §1, §2

[9] = molecular target: FIX Y404F with C-terminal His-tag (human, UniProt P00740 47-461); experiment: as above
Description: as §1, §2

[10] = molecular target: T1, wild-type FIX with C-terminal His-tag (human, UniProt P00740 47-461); experiment: SPR (Biacore T200), His-tagged FIX captured by anti-His antibody, one-armed antibody as analyte; % of wild-type binding
T1 construct: Secreted mature FIX from expi293F cells; also called WT
Description: as §1

[11] = molecular target: FIX T343I with C-terminal His-tag (human, UniProt P00740 47-461); experiment: SPR (Biacore T200), His-tagged FIX variant captured by anti-His antibody, one-armed antibody as analyte; % of wild-type binding
Description: as §1, §2

[12] = molecular target: FIX L337A with C-terminal His-tag (human, UniProt P00740 47-461); experiment: as above
Description: as §1, §2

[13] = molecular target: FIX N346A with C-terminal His-tag (human, UniProt P00740 47-461); experiment: as above
Description: as §1, §2

[14] = molecular target: FIX R333A with C-terminal His-tag (human, UniProt P00740 47-461); experiment: as above
Description: as §1, §2

[15] = molecular target: FIX D332S with C-terminal His-tag (human, UniProt P00740 47-461); experiment: as above
Description: as §1, §2

[16] = molecular target: FIX R338A with C-terminal His-tag (human, UniProt P00740 47-461); experiment: as above
Description: as §1, §2

[17] = molecular target: FIX K341A with C-terminal His-tag (human, UniProt P00740 47-461); experiment: as above
Description: as §1, §2

[18] = molecular target: FIX A334L with C-terminal His-tag (human, UniProt P00740 47-461); experiment: as above
Description: as §1, §2

[19] = molecular target: FIX T335A with C-terminal His-tag (human, UniProt P00740 47-461); experiment: as above
Description: as §1, §2

[20] = molecular target: FIX K341E with C-terminal His-tag (human, UniProt P00740 47-461); experiment: as above
Description: as §1, §2

[21] = molecular target: FIX S339L with C-terminal His-tag (human, UniProt P00740 47-461); experiment: as above
Description: as §1, §2

[22] = molecular target: FIX D332A with C-terminal His-tag (human, UniProt P00740 47-461); experiment: as above
Description: as §1, §2

[23] = molecular target: FIX T340A with C-terminal His-tag (human, UniProt P00740 47-461); experiment: as above
Description: as §1, §2

[24] = molecular target: FIX K301A with C-terminal His-tag (human, UniProt P00740 47-461); experiment: as above
Description: as §1, §2

[25] = molecular target: FIX T343A with C-terminal His-tag (human, UniProt P00740 47-461); experiment: as above
Description: as §1, §2

[26] = molecular target: FIX N346Q with C-terminal His-tag (human, UniProt P00740 47-461); experiment: as above
Description: as §1, §2

T1 sequence (P00740 other isoform, or with tags, fused parts or gaps limits assumed): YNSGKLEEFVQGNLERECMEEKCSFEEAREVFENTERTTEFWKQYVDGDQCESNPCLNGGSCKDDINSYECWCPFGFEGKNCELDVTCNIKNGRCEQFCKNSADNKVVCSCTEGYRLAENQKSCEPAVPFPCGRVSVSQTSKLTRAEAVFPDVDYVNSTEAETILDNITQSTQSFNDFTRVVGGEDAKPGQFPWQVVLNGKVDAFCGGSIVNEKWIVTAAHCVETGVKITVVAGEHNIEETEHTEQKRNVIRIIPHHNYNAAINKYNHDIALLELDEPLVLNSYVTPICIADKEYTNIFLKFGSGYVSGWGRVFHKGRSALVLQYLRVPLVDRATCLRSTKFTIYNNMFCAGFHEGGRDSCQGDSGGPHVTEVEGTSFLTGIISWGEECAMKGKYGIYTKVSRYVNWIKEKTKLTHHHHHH
Chain of FIX K301A with C-terminal His-tag (P00740 other isoform, or with tags, fused parts or gaps K301A K301A limits assumed): as the sequence (P00740 other isoform, or with tags, fused parts or gaps limits assumed) above, with K301A counted along it
Chain of FIX N346A with C-terminal His-tag (P00740 other isoform, or with tags, fused parts or gaps N346A N346A limits assumed): as the sequence (P00740 other isoform, or with tags, fused parts or gaps limits assumed) above, with N346A counted along it
Chain of FIX S339L with C-terminal His-tag (P00740 other isoform, or with tags, fused parts or gaps S339L S339L limits assumed): as the sequence (P00740 other isoform, or with tags, fused parts or gaps limits assumed) above, with S339L counted along it
Chain of FIX R333A with C-terminal His-tag (P00740 other isoform, or with tags, fused parts or gaps R333A R333A limits assumed): as the sequence (P00740 other isoform, or with tags, fused parts or gaps limits assumed) above, with R333A counted along it
Chain of FIX D332A with C-terminal His-tag (P00740 other isoform, or with tags, fused parts or gaps D332A D332A limits assumed): as the sequence (P00740 other isoform, or with tags, fused parts or gaps limits assumed) above, with D332A counted along it
Chain of FIX K341E with C-terminal His-tag (P00740 other isoform, or with tags, fused parts or gaps K341E K341E limits assumed): as the sequence (P00740 other isoform, or with tags, fused parts or gaps limits assumed) above, with K341E counted along it
Chain of FIX R338A with C-terminal His-tag (P00740 other isoform, or with tags, fused parts or gaps R338A R338A limits assumed): as the sequence (P00740 other isoform, or with tags, fused parts or gaps limits assumed) above, with R338A counted along it
Chain of FIX L337A with C-terminal His-tag (P00740 other isoform, or with tags, fused parts or gaps L337A L337A limits assumed): as the sequence (P00740 other isoform, or with tags, fused parts or gaps limits assumed) above, with L337A counted along it
Chain of FIX K341A with C-terminal His-tag (P00740 other isoform, or with tags, fused parts or gaps K341A K341A limits assumed): as the sequence (P00740 other isoform, or with tags, fused parts or gaps limits assumed) above, with K341A counted along it
Chain of FIX A334L with C-terminal His-tag (P00740 other isoform, or with tags, fused parts or gaps A334L A334L limits assumed): as the sequence (P00740 other isoform, or with tags, fused parts or gaps limits assumed) above, with A334L counted along it

Binder	Binding (%) relative to wild-type [10] [%]	Binding (%) relative to wild-type [11] [%]	Binding (%) relative to wild-type [12] [%]	Binding (%) relative to wild-type [13] [%]	Binding (%) relative to wild-type [14] [%]	Binding (%) relative to wild-type [16] [%]	Binding (%) relative to wild-type [17] [%]	Binding (%) relative to wild-type [18] [%]	Binding (%) relative to wild-type [19] [%]	Binding (%) relative to wild-type [20] [%]	Binding (%) relative to wild-type [21] [%]	Binding (%) relative to wild-type [22] [%]	Binding (%) relative to wild-type [23] [%]	Binding (%) relative to wild-type [24] [%]	Binding (%) relative to wild-type [25] [%]	further results
mAb3-3279 (monovalent one-armed variant of mAb1-1307) (antibody, V domains shown) VH: EVQLVESGGGLVQPGRSLRLSCAASGFTFGDYAMHWVRQAPGKGLEWVSGISWNSGSIGYADSVKGRFTISRDNAKNSLYLQMNSLRAEDTALYYCAKGQYDEDAGMDVWGQGTTVTVSS VL: DIQMTQSPSSLSASVGDRVTITCRASQSISSYLNWYQQKPGKAPKLLIYAASSLQSGVPSRFSGSGSGTDFTLTISSLQPEDFATYYCQQGYPTWTFGGGTKVEIK	100	–	–	–	–	–	–	–	–	–	–	–	–	–	–	Binding (%) relative to wild-type [1]: 94%; Binding (%) relative to wild-type [2]: 82%; Binding (%) relative to wild-type [3]: 71%; Binding (%) relative to wild-type [4]: 12%; Binding (%) relative to wild-type [5]: 32%; Binding (%) relative to wild-type [6]: 39%; Binding (%) relative to wild-type [7]: 8%; Binding (%) relative to wild-type [8]: 23%; Binding (%) relative to wild-type [9]: 76%
mAb4-0004 (monovalent one-armed variant of mAb0-1998) (antibody, V domains shown) VH: EVQLVESGGGLVQPGRSLKLSCAASGFTFDDYAMHWVRQVPGKGLEWVSGISWNGDNIGYVDSVKGRFTISRDNAKNSLYLQLNSLRAEDTALYYCVKSYGSGSFYNAFDSWGQGTLVTVSS VL: DIQMTQSPSTLSASAGDRVTITCRASQSISSWLAWYQQKPGKAPKFLIYKASSLESGVPSRFSGSGSGTEFSLTISSLQPDDFATYYCLEYSSYIRTFGQGTKVEIK	100	48	52	73	66	2	21	51	62	2	66	50	37	66	38	Binding (%) relative to wild-type [15]: 66%
mAb4-0673 (monovalent one-armed variant of mAb0-1886) (antibody, V domains shown) VH: EVQLVQSGAEVKKPGESLRISCKGSGYSFTSYWIGWVRQMPGKGLEWMGMIDPSDSYTDYGPSFRGHVTISADKSISTAYLQWSSLKASDTAMYYCARVRIMEGAFDIWGQGTMVTVSS VL: not shown	100	90	7	51	4	3	96	44	71	53	73	17	67	93	63	Binding (%) relative to wild-type [26]: 94%
